# From patent EP4790144A1 (Peking Union Medical College Hospital, dated 2026)
# T1: 2023-601 project-ABCD1 protein (human, UniProt P33897 650-745)
# T1 construct: also called antigen protein ABCD1
# T1 sequence: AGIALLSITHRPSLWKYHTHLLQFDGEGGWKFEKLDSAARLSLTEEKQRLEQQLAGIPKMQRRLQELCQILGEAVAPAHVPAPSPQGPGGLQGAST
# Target: T1, 2023-601 project-ABCD1 protein
# Assay: ELISA, ABCD1 protein coated at 2 ug/mL, HRP goat anti-mouse secondary antibody
row,Binder,binding result
1,"07TE04 (antibody, V domains shown) VH: QVQLQQSGAELVKPGASVKLSCKASGYTFTRYYLYWVKQRPGQGLEWIGKINPTNGVADLNEKFKYKATLTVDKSSSTTHMQLSSLTSEDSAVYYCTRVYYKYDGFAYWGQGTLVTVSA VL: DIVMTQSLKFMSTSVGDRVSIICKASQDVGTAVAWYQQKPAQSPKLLIYWASTRHTGVPDRFTGSGSGTDFTLTISNVQSEDLTDYFCQQYSSYPLTFGGGTKLEIK",binds
2,"07PC09 (antibody, V domains shown) VH: IVMLVESGGGLVKPGGSLKLSCVASGFTFSTYAMSWIRQTPEKRLAWVATISSGGSSTYYSDSVKGRFTISRDNAKNTLYLQMSSLRSEDTAMYYCARHGDWDGSLAYWGQGTQVTVSA VL: DIVMTQSHKLMSTSVGDRVNITCKASQDVNAAVAWYQQQPGQSPKLLFYWASTRHTGVPDRFTGSGSRTDYTLTISGVQAEDLALYYCQQHYSAPRTFGGGTKLEVK",binds
3,"07PC17 (antibody, V domains shown) VH: QLQLVQSGPEVKKPGETVKISCKASGYAFTNYGMNWVKQAPGKDLKWMGWINTYTGDPVYGDDFKGRFAFSLDTSASTAYLQINNLKNEDTATYFCVREPIYYGWVDYWGQGTSVTVSS VL: DIVMTQAAPSVPVTPGESASISCRSSKSLLHRNGNTYLYWFLQRPGQSPQVLIYRMSNLASGVPDRFSGSGSGTAFTLRISRVEAEDVGVYYCMQHLEYPYTFGGGTKLEIK",binds
4,"07PC28 (antibody, V domains shown) VH: QIQLVQSGPELKKPGETVKISCKTSGYTFTDFGMNWVKRAPGQDLKWMGWINTYTGATTYGDEFKGRFAFSLETSASTASLQINNLKNEDSATYFCVREPLYYGWVDYWGQGTSVIVSS VL: DIVMTQVAPSVPVTPGESVSISCRSSKSLLHRNGNTYLYWFLQRPGQSPQVLIYRMSNLASGVPDRFSGSGSGTAFTLRISRVEAEDVGVYYCMQHLEYPYTFGGGTKLEIK",binds
5,"07PC03 (antibody, V domains shown) VH: QLQLVQSGPEVKKPGETVKISCKASGYAFTNYGMNWVKQAPGKDLKWMGWIKTYTGDSVYGDDFKGRFAFSLDTSASTAYLQINDLKNEDTATYFCVREPIYYGWVDYWGQGTSVTVSS VL: DIVMTQAAPSVPVTPGESASISCRSSKSLLHRNGNTYLYWFLQRPGQSPQVLIYRMSNLASGVPDRFSGSGSGTAFTLRISRVEAEDVGVYYCMQHLEYPYTFGGGTKLEIK",binds
6,"07TE02 (antibody, V domains shown) VH: DVKLVESGGGLVKPGGSLKLSCAASGLTFSIYAMSWVRQTPEKRLEWVATISAGDIYPYYSDSVKGRFAISRDNAKNTLYLQMSSLRSEDTAIYYCTSITMAMAYWGQGTLVTVSA VL: not shown",binds

# More lines, now with the values ahead:
row,binding result,Binder
1,binds,"07PC27 (antibody, V domains shown) VH: QLQLVQSGPELKKPGETVKISCKASGYAFTNYGMNWVKQTPGKGLKWMGWINTYSGETTYGDDFKGRFAFSLETSASTAYLQINSLKNEDTATYFCVREPIYYGWVDYWGQGTSVTVSS VL: DIVMTQAAPSVPVTPGESVSISCRSSKSLLHRNGNTYLYWFLQRPGQSPQVLIYRMSNLASGVPDRFSGSGSGTAFTLRISRVEAEDVGVYYCMQHLEYPYTFGGGTKLEIK"
2,binds,"07TE08 (antibody, V domains shown) VH: DVKLVESGGGLVKPGGSLKLSCAASGFTFSIYAMSWVRQTPEKRLEWVATISAGDIYPYYSDSVKGRFAISRDNAKNTLFLQMSSLRSEDTAIYYCTSITMAMAYWGQGTLVTVSA VL: not shown"
3,binds,"07PC08 (antibody, V domains shown) VH: EVKLEESGGGLVQPGGSMKLSCGASGFTFSDAWMDWVRQSPEKGLEWVAEIRSKAINHATYYAESVKGRFTISRDDSKSSVYLQMNSLRAEDTGIYYCTRRVDWYFDVWGAGTTVTVSS VL: DILLTQSPAILSVSPGERVSFSCRASQSIGTSIYWYQQRTNGSPRLLIKYASESISGIPSRFSGSGSGTDFTLSINSVESEDIADYYCQQSNSWPLTFGAGTKLELK"
